Reference: the RNAGym collection of RNA variant scans (doi:10.7554/elife.80360)

B1: CPEB3 Ribozyme (parent)
chain: GGGGGCCACAGCAGAAGCGUUCACGUCGCGGCCCCUGUCAGAUUCUGGUGAAUCUGCGAAUUCUGCUGU

Variants of: B1
Test: self-cleavage, relative activity (ratio to wild type); higher = more cleavage; co-transcriptional

Row | Variant | self-cleavage
1 | G30U U44A | 0.248
2 | G30U U44C | 0.364
3 | G30U U44G | 0.308
4 | G31A G50A | 0.95
5 | G31A G50C | 0.84
6 | G31A G50U | 0.889
7 | G31C C35U | 0.189
8 | G31C C35A | 0.241
9 | G31A | 0.931
10 | G31C | 0.255
11 | G30U G58U | 0.439
12 | G30U G58C | 0.302
13 | G30U G58A | 0.284
14 | G30U U69A | 0.666
15 | G31A A59C | 0.394
16 | G31A A59U | 0.441
17 | G30U U62C | 0.211
18 | G30U U62G | 0.19
19 | G31A U62G | 0.434
20 | G31A U62C | 0.406
21 | G31A U62A | 0.352
22 | G31A G68C | 1.02
23 | G31A G68A | 1.03
24 | G31A G68U | 1

Row | Variant | self-cleavage
25 | G30U U53G | 0.241
26 | G30U U53C | 0.276
27 | G30U U53A | 0.297
28 | G31A U38C | 0.762
29 | G30U U61C | 0.243
30 | G31C G37C | 0.217
31 | G31C G37A | 0.19
32 | G31C G37U | 0.203
33 | G30U U46A | 0.44
34 | G30U U46C | 0.39
35 | G31A U43C | 0.601
36 | G31A U43A | 0.59
37 | G31A U43G | 0.524
38 | G31A C63G | 0.391
39 | G31A C63U | 0.895
40 | G31A G47U | 0.915
41 | G30U G31C | 0.149
42 | G30U G31A | 0.196
43 | G30U C57U | 0.207
44 | G30U C57A | 0.235
45 | G31C A52G | 0.197
46 | G31C A52C | 0.266
47 | G31C A52U | 0.184
48 | G30U G68C | 0.825

Row | Variant | self-cleavage
49 | G31A A40U | 0.533
50 | G31A A40G | 0.771
51 | G31A A40C | 0.218
52 | G30U C63A | 0.181
53 | G30U C63G | 0.261
54 | G31A U61A | 0.364
55 | G31A U61G | 0.381
56 | G31A C35G | 0.26
57 | G31A C34A | 0.239
58 | G30U G48A | 0.455
59 | G30U G48C | 0.416
60 | G30U G48U | 0.393
61 | G31C C34G | 0.382
62 | G31C C34U | 0.281
63 | G31A A51U | 0.879
64 | G31A A51C | 0.897
65 | G31A A51G | 0.928
66 | G30U G47U | 0.417
67 | G31A G41U | 0.512
68 | G31A G41C | 0.349
69 | G31A U64G | 0.728
70 | G31A G37C | 0.231
71 | G31A G37A | 0.193
72 | G31A C54U | 0.793

Row | Variant | self-cleavage
73 | G31A C54A | 0.489
74 | G31A C54G | 0.436
75 | G31A G56C | 0.523
76 | G31A G56A | 0.702
77 | G31A G56U | 0.767
78 | G30U U38C | 0.253
79 | G30U U38A | 0.201
80 | G30U U38G | 0.153
81 | G30U G65C | 0.214
82 | G30U G65U | 0.162
83 | G31A A60G | 0.475
84 | G31A G48U | 0.931
85 | G31C C66G | 0.155
86 | G31C C66U | 0.264
87 | G31C C66A | 0.252
88 | G31A C33A | 0.266
89 | G31A C33U | 0.587
90 | G30U C54U | 0.339
91 | G31C C57G | 0.151
92 | G31A C45A | 0.833
93 | G31A C45G | 0.761
94 | G31A C45U | 0.888
95 | G30U U64A | 0.288
96 | G30U U64G | 0.219

Row | Variant | self-cleavage
97 | G31A C39G | 0.733
98 | G31A C39U | 0.589
99 | G31A U67A | 0.951
100 | G31A U67C | 0.984
101 | G31C A42U | 0.18
102 | G31C A42G | 0.277
103 | G30U U49C | 0.456
104 | G30U U49G | 0.352
105 | G30U U49A | 0.365
106 | G31A U46A | 0.866
107 | G30U U67A | 0.735
108 | G31A A52C | 0.82
109 | G31C C33G | 0.443
110 | G31C C33A | 0.338
111 | G31A C57U | 0.34
112 | G31A C57A | 0.307
113 | G31A A42G | 0.794
114 | G31A A42U | 0.638
115 | G30U C66G | 0.216
116 | G30U C66U | 0.331
117 | G30U C66A | 0.278
118 | G31A U44A | 0.808
119 | G31A U44G | 0.585
120 | G31A U44C | 0.749

Row | Variant | self-cleavage
121 | G30U U36G | 0.175
122 | G30U U36C | 0.179
123 | G30U U36A | 0.198
124 | G31A U69G | 1.02
125 | G31C C63A | 0.233
126 | G31C C63U | 0.251
127 | G31C C63G | 0.133
128 | G30U G56C | 0.196
129 | G30U G56A | 0.218
130 | G31A U49A | 0.886
131 | G31A U49G | 0.812
132 | G31A U49C | 0.938
133 | G31A G58A | 0.741
134 | G31C C54G | 0.183
135 | G31C C54A | 0.189
136 | G31A C32A | 0.637
137 | G31A C32U | 0.534
138 | G31A U36C | 0.669
139 | G31A U36A | 0.218
140 | G31A U36G | 0.268
141 | G31C C32U | 0.235
142 | G31C C32A | 0.474
143 | G31C A59U | 0.24
144 | G31C A59C | 0.178

Row | Variant | self-cleavage
145 | G30U G41U | 0.229
146 | G30U G41A | 0.216
147 | G31C A60C | 0.21
148 | G31C A60U | 0.144
149 | G31C A60G | 0.226
150 | G31A C66G | 0.707
151 | G31C A40G | 0.229
152 | G30U G37C | 0.186
153 | G30U G37A | 0.159
154 | G30U U43A | 0.311
155 | G30U U43G | 0.281
156 | G30U U43C | 0.38
157 | G31A U53A | 0.554
158 | G31A U53C | 0.58
159 | G31C C45G | 0.245
160 | G31C C45U | 0.263
161 | G31C C45A | 0.25
162 | G30U U55A | 0.304
163 | G30U U55G | 0.232
164 | G30U U55C | 0.287
165 | G31C C39A | 0.186
166 | G31C C39U | 0.197
167 | G31C C39G | 0.235
